In US20090083877A1, “Transcription Factors, DNA and Methods for Introduction of Value-Added Seed Traits and Stress Tolerance” (priority 2002, published 2009):
“Also recorded” adds a separate entry of the source. Read-outs that look alike come from different tables or passages of the source.

B1: AREB3: Arabidopsis ABI5-like bZIP transcription factor, At3g56850 (protein, listed as Arabidopsis thaliana)
chain: MDSQRGIVEQAKSQSLNRQSSLYSLTLDEVQNHLGSSGKALGSMNLDELLKSVCSVEANQPSSMAVNGGAAAQEGLSRQGSLTLPRDLSKKTVDEVWKDIQQNKNGGSAHERRDKQPTLGEMTLEDLLLKAGVVTETIPGSNHDGPVGGGSAGSGAGLGQNITQVGPWIQYHQLPSMPQPQAFMPYPVSDMQAMVSQSSLMGGLSDTQTPGRKRVASGEVVEKTVERRQKRMIKNRESAARSRARKQAYTHELEIKVSRLEEENERLRKQKEVEKILPSVPPPDPKRQLRRTSSAPF
B2: RAV2: Arabidopsis ABI3-Like B3 domain transcription factor, At1g68840, SEQ ID NO 3 and 4 (protein, listed as Arabidopsis thaliana)
chain: MDSSCIDEISSSTSESFSATTAKKLSPPPAAALRLYRMGSGGSSVVLDPENGLETESRKLPSSKYKGVVPQPNGRWGAQIYEKHQRVWLGTFNEQEEAARSYDIAACRFRGRDAVVNFKNVLEDGDLAFLEAHSKAEIVDMLRKHTYADELEQNNKRQLFLSVDANGKRNGSSTTQNDKVLKTREVLFEKAVTPSDVGKLNRLVIPKQHAEKHFPLPSPSPAVTKGVLINFEDVNGKVWRFRYSYWNSSQSYVLTKGWSRFVKEKNLRAGDVVTFERSTGLERQLYIDWKVRSGPRENPVQVVVRLFGVDIFNVTTVKPNDVVAVCGGKRSRDVDDMFALRCSKKQAIINAL
B3: DPBF4/EEL: Arabidopsis ABI5-like bZIP transcription factor, Enhanced Em Level, At2g41070 (protein, listed as Arabidopsis thaliana)
chain: MGSIRGNIEEPISQSLTRQNSLYSLKLHEVQTHLGSSGKPLGSMNLDELLKTVLPPAEEGLVRQGSLTLPRDLSKKTVDEVWRDIQQDKNGNGTSTTTTHKQPTLGEITLEDLLLRAGVVTETVVPQENVVNIASNGQWVEYHHQPQQQQGFMTYPVCEMQDMVMMGGLSDTPQAPGRKRVAGEIVEKTVERRQKRMIKNRESAARSRARKQAYTHELEIKVSRLEEENEKLRRLKEVEKILPSEPPPDPKWKLRRTNSASL
B4: VP1: maize VIVIPAROUS-1 B3-domain transcription factor, SEQ ID NO 1 and 2, expressed from 35S promoter (protein)
chain: MEASSGSSPPHSQENPPEHGGDMGGAPAEEIGGEAADDFMFAEDTFPSLPDFPCLSSPSSSTFSSNSSSNSSSAYTNTAGRAGGEPSEPASAGEGFDALDDIDQLLDFASLSMPWDSEPFPGVSMMLENAMSAPPQPVGDGMSEEKAVPEGTTGGEEACMDASEGEELPRFFMEWLTSNRENISAEDLRGIRLRRSTIEAAAARLGGGRQGTMQLLKLILTWVQNHHLQRKRPRDVMEEEAGLHVQLPSPVANPPGYEFPAGGQDMAAGGGTSWMPHQQAFTPPAAYGGDAVYPSAAGQQYSFHQGPSTSSVVVNSQPFSPPPVGDMHGANMAWPQQYVPFPPPGASTGSYPMPQPFSPGFGGQYAGAGAGHLSVAPQRMAGVEASATKEARKKRMARQRRLSCLQQQRSQQLSLGQIQTSVHLQEPSPRSTHSGPVTPSAGGWGFWSPSSQQQVQNPLSKSNSSRAPPSSLEAAAAAPQTKPAPAGARQDDIHHRLAAASDKRQGAKADKNLRFLLQKVLKQSDVGSLGRIVLPKKEAEVHLPELKTRDGISIPMEDIGTSRVWNMRYRFWPNNKSRMYLLENTGEFVRSNELQEGDFIVIYSDVKSGKYLIRGVKVRPPPAQEQGSGSSGGGKHRPLCPAGPERAAAAGAPEDAVVDGVSGACKGRSPEGVRRVRQQGAGAMSQMAVSI
modifications: Zea mays

Legend:
[1] = tested on: ABA-inducible wheat Em promoter; assay: Em-GUS reporter transactivation in transiently transformed rice protoplasts; type: cell-based, Oryza sativa; conditions: for Synergy with exogenous ABA on Em-GUS expression: 100 μM ABA, 16 h; for Transactivation of Em-GUS expression by overexpressed effector: effector overexpressed alone, average of four replicate transformations
Description: Embryonic rice (Oryza sativa) callus cultures (Radon 6 from the International Rice Research Institute, Los Bafios, Phillipines) were obtained. Embryonic rice callus cultures were grown as suspensions in liquid culture as well as on phytagel plates containing MS medium supplemented with 2.0 mg/L 2,4-D. Cultures were propagated and digested for making protoplasts as previously described except that 10 mM HEPES (Sigma, St. Louis, Mo., USA), pH 5.6, was substituted for phosphate in the Krens'F medium, and 2% (weight/volume; w/v) cellulase YC, 0.35% (w/v) macerozyme, and 0.1% (w/v) pectolyase Y23 were used for overnight digestion (Karlan Research Products, Santa Rosa, CA, USA). Protoplasts were transformed with various mixtures of DNA reporter and effector constructs using polyethylene glycol precipitation. Transformed protoplasts were incubated with or without 100 μM ABA for 16 h in the dark in Krens solution before quantifying β-glucuronidase (GUS) and luciferase (LUC) reporter enzyme activities as previously described. ABA was dissolved and stored in absolute ethanol at −20° C. as a 0.1 M stock solution. Prior to use, required dilutions of ABA were made in Krens solution, and control samples received the same volume of solvent as in ABA treatments.
(§1) Plasmid pBM207 contains the wheat (Triticum aestivum) Early Methionine-labeled (Em) promoter driving the expression of GUS, encoded by uida from Escherichia coli. Plasmid pDH359 contains ABI5 cDNA driven by Ubiquitin promoter. Plasmid pCR349.13S contains the 35S promoter driving the VP1 sense cDNA. Plasmid pDirect2.6 contains the Ubi promoter in a reverse orientation and was used as control construct to balance the total amount of input plasmid DNA between various treatments. Plasmid pAHC 18 contains the Ubi promoter driving firefly (Photinus pyralis) LUC cDNA and was included in transformations to provide an internal reference for non-ABA-inducible transient transcription in reporter enzyme assays. ABF1-ABF4, AREB3, and DPBF4 were amplified by PCR using gene-specific primers from an Arabidopsis cDNA library (Minet et al. Plant J. 2:417 (1992)) and were cloned into plasmid pDH349 (Gampala et al. J. Biol. Chem. 277: 1689 (2002)) containing the maize Ubiquitin promoter and nopaline synthase 3′ termination signals.
Simultaneously, it has been shown that ABF2, ABF3 and ABF4 overexpression in transgenic Arabidopsis results in ABA hypersensitivity and other ABA-associated phenotypes such as altered ABA-inducible gene expression and glucose signaling, reduced transpiration, and enhanced drought tolerance. The functional roles of the ABI5-like family members ABF1-ABF4 in regulation of ABA-inducible gene expression in rice protoplasts were tested and the results are shown in FIG. 1. […] Protoplasts were transformed with Em-GUS and a “dummy” effector construct (pD2.6 containing only the Ubiquitin promoter used to drive effector expression) or co-transformed with a Ubi-ABF construct and treated with or without 100 μM ABA. The values shown in FIG. 1A are the average (±S.E.M.) of four replicate transformations.
Rice protoplasts were transformed with either Em-GUS alone or in pairwise combinations of Ubi-ABF3, Ubi-ABI5, or 35S-VP1. The values in FIG. 1B are the average (±S.E.M.) of four replicate transformations. ABF3 is a related member of the ABI5-family of bZIP transcription factors.

[2] = tested on: ABA-inducible wheat Em promoter; assay: Em-GUS reporter transactivation in transiently transformed maize mesophyll protoplasts; type: cell-based; conditions: for Transactivation of Em-GUS expression by overexpressed effector: effector overexpressed alone
Description: Plant Materials. Maize mesophyll protoplasts were isolated from 20-hr illuminated leaves of 10 day old maize seedlings that had been kept in the dark at 25° C. The middle part of the second leaves (about 6 cm in length) was cut into 0.5 mm strips with a razor blade and digested in an enzyme solution containing 1% (w/v) cellulose RS, 0.1% (w/v) macerozyme R10 (Yakult Honsha, Nishinomiya, Japan), 0.6 M mannitol, 10 mM MES (pH 5.7), 1 mM CaCl2, 1 mM MgCl2, 10 mM β-mercaptoethanol, and 0.1% BSA (w/v) for 3 hr at room temperature. Protoplasts were released by shaking on a rotary shaker at 80 rpm for 10 min and were filtered through a 70 μm nylon filter. Protoplasts were collected by centrifugation at 100 g for 2 min, washed in cold 0.6 M mannitol solution, centrifuged, and resuspended at 2×10^6/mL in cold 0.6 M mannitol. Electroporation conditions were 400 V/cm, 200 μF, 10 msec, and two pulses with a Biorad GenePulser apparatus. Each sample contained 5×10^4 protoplasts and about 50 μg DNA in 0.3 mL of 0.6 M mannitol and 20 mM KCl.
as §1
The values in FIG. 2 are the average (±S.E.M.) of four replicate transformations.
To test the involvement of ABI3-Like B3 domain transcription factors in ABA signaling, ABA-inducible reporter gene transactivation by the B3 domain-containing RAV2 was assayed in maize mesophyll protoplasts transiently co-transformed with a full length cDNA under transcriptional control of the Ubiquitin promoter. Activation of Em-GUS reporter gene expression by RAV2, relative to non-ABA inducible Ubi-LUC reference reporter as internal control, and functional interactions of RAV2 with VP1, ABI5, and the ABI5-Like ABF3 were compared in protoplasts treated with or without 100 uM ABA (see FIG. 3).

| Molecule | Synergy with exogenous ABA on Em-GUS expression [1] | Transactivation of Em-GUS expression by overexpressed effector [1] | Synergy with co-transformed VP1 on Em-GUS expression [2] | Synergy with exogenous ABA on Em-GUS expression [2] | Transactivation of Em-GUS expression by overexpressed effector ([2]; maize mesophyll protoplasts) | also measured |
| --- | --- | --- | --- | --- | --- | --- |
| ABI5: Arabidopsis basic leucine zipper (bZIP) domain transcription factor, At2g36270, SEQ ID NO 5 and 6 | acted in synergy with ABA | transactivated the Em promoter | can synergize with co-transformed VP1 | synergize with exogenous ABA | sufficient for transactivation of the Em promoter; also recorded: sufficient for specific Em-GUS transactivation; also recorded: sufficient to transactivate Em-GUS expression | – |
| B1 | – | – | no functional interactions with VP1 and not | synergize with exogenous ABA | sufficient to transactivate Em-GUS expression | – |
| B2 | – | – | – | – | sufficient for specific Em-GUS transactivation | Effect of ABA on synergism with VP1 [2]: enhanced by ABA; Synergy with ABF3 on Em-GUS expression [2]: synergizes; also recorded: interacts synergistically; Synergy with ABI5 on Em-GUS expression [2]: synergizes; also recorded: interacts synergistically; Synergy with VP1 on Em-GUS expression [2]: act synergistically to activate Em-GUS expression; also recorded: interacts synergistically; Effect of co-transformed ABA-INSENSITIVE-1 dominant negative allele on transactivation ([2]; maize mesophyll protoplasts, data not shown): antagonized |
| B3 | – | – | – | – | sufficient to transactivate Em-GUS expression | Synergy with co-transformed VP1 on Em-GUS expression ([2]; maize mesophyll protoplasts, co-transformed with VP1): some antagonism of ABA inducible Em-GUS expression and not; Synergy with exogenous ABA on Em-GUS expression ([2]; maize mesophyll protoplasts, exogenous ABA): synergize with exogenous ABA |
| B4 | acted in synergy with ABA | transactivated the Em promoter | – | – | – | – |
